Laboratory results published in US20170218081A1.

Molecular target: Bovine submaxillary mucin (bovine)
Assay: SPR, BSM immobilised on CM5 chip

Substance CC49.scFv has a Kd of 30 nM.
